Test results as given in paper PMC3627575.

B1: N25 (dsDNA)
DNA 1: TATACAAACCCCTTACCAATATCATA
DNA 2: ATATGATATTGGTAAGGGGTTTGTAT
B2: PRDIII-I (dsDNA)
DNA 1: GAGGAAAACTGAAAGGGAACTGAAA
DNA 2: TTTCAGTTCCCTTTCAGTTTTCCTC
B3: v2 (dsDNA)
DNA 1: ATAACTGGGAGGCGACGCTGGCG
DNA 2: TCGCCAGCGTCGCCTCCCAGTTA
B4: v1 (dsDNA)
DNA 1: AGGCACGCGTCCAGGCAACCGGG
DNA 2: TCCCGGTTGCCTGGACGCGTGCC
B5: S0_x2 (dsDNA)
DNA 1: AGCGTCGAGACGCGCGTCGAGACGC
DNA 2: TGCGTCTCGACGCGCGTCTCGACGC
B6: dsS0mm (dsDNA)
DNA 1: GCGTCGAGACGC
DNA 2: GCGTCGAGACGC

What follows are binders tested against T1, vIRF-1 DBD (vIRF-1 88-196) (Kaposi's sarcoma-associated herpesvirus …, UniProt F5HF68 88-196) (assay: thermal stability shift assay).
T1 sequence (F5HF68 88-196): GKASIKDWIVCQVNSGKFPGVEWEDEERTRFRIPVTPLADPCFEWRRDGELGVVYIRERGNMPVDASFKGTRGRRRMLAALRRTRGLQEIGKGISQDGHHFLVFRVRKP
B1: binds.
B2: binds.
B3: binds.
B4: binds.
B5: binds.

These binders were tested against T1, vIRF-1 DBD (vIRF-1 88-196) (assay: X-ray crystallography).
B6: binds.
